94 variants from the supplement of paper PMC10567573 can be followed below.

The labels stand for the following.
B1: MYL5 (parent)
chain: FQFASIDVAGNLDYKALSYVITHG
B2: TRIM9 (parent)
chain: CVQCKMPVCYQCLEEGKHSSHEVK
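Further: lentivirally expressed fusions sorted by FACS into six bins by GFP to DsRed ratio, PSI derived from sequencing read proportions per bin multiplied by bin number.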

The first data set covers variants of B1. Kind of data set: protein stability index of a GFP-peptide fusion (GPS, HEK-293T) (PSI 1-6); higher = more stable. The settings on record: c terminus: a fixed tail appended.
With FQVASIDVAGNLDYKALSYVITHG [F3V], the protein stability index was 2.75.

On to FQHASIDVAGNLDYKALSYVITHG [F3H], for which the protein stability index was 2.11.

For FQNASIDVAGNLDYKALSYVITHG [F3N], the protein stability index was found to be 1.36.

In the case of FQYASIDVAGNLDYKALSYVITHG [F3Y], the protein stability index is 2.59.

Take FQDASIDVAGNLDYKALSYVITHG [F3D]: the protein stability index was 1.34.

On to FQPASIDVAGNLDYKALSYVITHG [F3P], for which the protein stability index is 2.84.

In the case of FQGASIDVAGNLDYKALSYVITHG [F3G], the protein stability index amounted to 3.

Consider FQIASIDVAGNLDYKALSYVITHG [F3I], for which the protein stability index worked out at 2.29.

As for FQQASIDVAGNLDYKALSYVITHG [F3Q], the protein stability index is 2.32.

Take FQEASIDVAGNLDYKALSYVITHG [F3E]: the protein stability index is 1.56.

Consider FQRASIDVAGNLDYKALSYVITHG [F3R], for which the protein stability index was found to be 1.75.

On to FQTASIDVAGNLDYKALSYVITHG [F3T], for which the protein stability index was 1.22.

For FQKASIDVAGNLDYKALSYVITHG [F3K], the protein stability index was determined as 1.43.

Turning to FQCASIDVAGNLDYKALSYVITHG [F3C], the protein stability index was determined as 2.41.

In the case of FQMASIDVAGNLDYKALSYVITHG [F3M], the protein stability index is 2.36.

Take FQSASIDVAGNLDYKALSYVITHG [F3S]: the protein stability index was 1.93.

Consider FQAASIDVAGNLDYKALSYVITHG [F3A], for which the protein stability index came out at 2.17.

For YQFASIDVAGNLDYKALSYVITHG [F1Y], the protein stability index is 2.68.

For the variant TQFASIDVAGNLDYKALSYVITHG [F1T], the protein stability index was determined as 1.55.

Turning to HQFASIDVAGNLDYKALSYVITHG [F1H], the protein stability index stood at 1.79.

PQFASIDVAGNLDYKALSYVITHG [F1P]: the protein stability index worked out at 2.79.

In the case of AQFASIDVAGNLDYKALSYVITHG [F1A], the protein stability index is 1.63.

Turning to QQFASIDVAGNLDYKALSYVITHG [F1Q], the protein stability index is 2.23.

With WQFASIDVAGNLDYKALSYVITHG [F1W], the protein stability index turned out to be 3.55.

Regarding KQFASIDVAGNLDYKALSYVITHG [F1K], the protein stability index stood at 1.27.

Regarding NQFASIDVAGNLDYKALSYVITHG [F1N], the protein stability index stood at 1.61.

On to SQFASIDVAGNLDYKALSYVITHG [F1S], for which the protein stability index turned out to be 1.18.

In the case of VQFASIDVAGNLDYKALSYVITHG [F1V], the protein stability index was 3.25.

On to DQFASIDVAGNLDYKALSYVITHG [F1D], for which the protein stability index was found to be 1.43.

Take LQFASIDVAGNLDYKALSYVITHG [F1L]: the protein stability index is 1.89.

On to EQFASIDVAGNLDYKALSYVITHG [F1E], for which the protein stability index is 1.23.

In the case of RQFASIDVAGNLDYKALSYVITHG [F1R], the protein stability index was found to be 1.67.

For CQFASIDVAGNLDYKALSYVITHG [F1C], the protein stability index came to 3.5.

Regarding IQFASIDVAGNLDYKALSYVITHG [F1I], the protein stability index was determined as 3.26.

In the case of GQFASIDVAGNLDYKALSYVITHG [F1G], the protein stability index was determined as 2.09.

With FQFAKIDVAGNLDYKALSYVITHG [S5K], the protein stability index is 2.4.

Take FQFAIIDVAGNLDYKALSYVITHG [S5I]: the protein stability index was 4.16.

Regarding FQFADIDVAGNLDYKALSYVITHG [S5D], the protein stability index amounted to 2.43.

Turning to FQFAAIDVAGNLDYKALSYVITHG [S5A], the protein stability index stood at 3.09.

In the case of FQFACIDVAGNLDYKALSYVITHG [S5C], the protein stability index is 1.36.

Consider FQFAFIDVAGNLDYKALSYVITHG [S5F], for which the protein stability index was determined as 3.77.

For the variant FQFANIDVAGNLDYKALSYVITHG [S5N], the protein stability index turned out to be 3.74.

On to FQFAVIDVAGNLDYKALSYVITHG [S5V], for which the protein stability index is 2.69.

FQFAMIDVAGNLDYKALSYVITHG [S5M]: the protein stability index turned out to be 3.67.

FRFASIDVAGNLDYKALSYVITHG [Q2R]: the protein stability index was found to be 4.64.

For FFFASIDVAGNLDYKALSYVITHG [Q2F], the protein stability index was found to be 2.36.

Turning to FGFASIDVAGNLDYKALSYVITHG [Q2G], the protein stability index is 3.54.

As to FMFASIDVAGNLDYKALSYVITHG [Q2M], the protein stability index amounted to 2.75.

As for FVFASIDVAGNLDYKALSYVITHG [Q2V], the protein stability index is 3.19.

With FAFASIDVAGNLDYKALSYVITHG [Q2A], the protein stability index was found to be 1.56.

FCFASIDVAGNLDYKALSYVITHG [Q2C]: the protein stability index came to 3.59.

Turning to FHFASIDVAGNLDYKALSYVITHG [Q2H], the protein stability index was found to be 2.06.

FNFASIDVAGNLDYKALSYVITHG [Q2N]: the protein stability index turned out to be 3.37.

On to FKFASIDVAGNLDYKALSYVITHG [Q2K], for which the protein stability index is 2.89.

As to FLFASIDVAGNLDYKALSYVITHG [Q2L], the protein stability index came out at 2.78.

As to FTFASIDVAGNLDYKALSYVITHG [Q2T], the protein stability index came out at 2.75.

With FDFASIDVAGNLDYKALSYVITHG [Q2D], the protein stability index was 4.24.

Regarding FPFASIDVAGNLDYKALSYVITHG [Q2P], the protein stability index came out at 3.25.

For the variant FEFASIDVAGNLDYKALSYVITHG [Q2E], the protein stability index worked out at 4.45.

Turning to FQFPSIDVAGNLDYKALSYVITHG [A4P], the protein stability index came out at 2.19.

Regarding FQFHSIDVAGNLDYKALSYVITHG [A4H], the protein stability index came out at 4.96.

For FQFLSIDVAGNLDYKALSYVITHG [A4L], the protein stability index was 4.51.

With FQFSSIDVAGNLDYKALSYVITHG [A4S], the protein stability index stood at 2.84.

In the case of FQFNSIDVAGNLDYKALSYVITHG [A4N], the protein stability index stood at 2.56.

Regarding FQFESIDVAGNLDYKALSYVITHG [A4E], the protein stability index was 2.51.

With FQFVSIDVAGNLDYKALSYVITHG [A4V], the protein stability index worked out at 1.99.

On to FQFQSIDVAGNLDYKALSYVITHG [A4Q], for which the protein stability index was 3.96.

In the case of FQFDSIDVAGNLDYKALSYVITHG [A4D], the protein stability index turned out to be 1.9.

In the case of FQFTSIDVAGNLDYKALSYVITHG [A4T], the protein stability index came out at 2.81.

As to FQFFSIDVAGNLDYKALSYVITHG [A4F], the protein stability index came out at 2.42.

A further data set covers variants of B2. The data set is described as above. The note with it: c terminus: a fixed tail appended.
As to CVQCKMPVCYQCLEEGMHSSHEVK [K17M], the protein stability index was 3.3.

For the variant CVQCKMPVCYQCLEEGFHSSHEVK [K17F], the protein stability index was 3.1.

In the case of CVQCKMPVCYQCLEEGEHSSHEVK [K17E], the protein stability index was 3.89.

With CVQCKMPVCYQCLEEGDHSSHEVK [K17D], the protein stability index amounted to 2.88.

In the case of CVQCKMPVCYQCLEEGCHSSHEVK [K17C], the protein stability index worked out at 3.47.

For the variant TVQCKMPVCYQCLEEGKHSSHEVK [C1T], the protein stability index is 3.75.

Turning to KVQCKMPVCYQCLEEGKHSSHEVK [C1K], the protein stability index came to 3.65.

FVQCKMPVCYQCLEEGKHSSHEVK [C1F]: the protein stability index is 2.58.

On to CVQCKMPVCYQCLEEGKHSLHEVK [S20L], for which the protein stability index is 4.43.

CVQCKMPVCYQCLEEGKHSAHEVK [S20A]: the protein stability index was determined as 3.68.

With CVQCKMPVCYQCLEEGKHSPHEVK [S20P], the protein stability index was 4.13.

Turning to CVQCKMPVCYQCLEEGKHSHHEVK [S20H], the protein stability index amounted to 4.3.

On to CVQCKMPVCYQCLEEGKHSNHEVK [S20N], for which the protein stability index amounted to 3.69.

Consider CVQCKMPVCYQCLEEGKHSIHEVK [S20I], for which the protein stability index was determined as 2.9.

Take CVQCKMPVCYQCLEEGKHSSHGVK [E22G]: the protein stability index came to 3.32.

In the case of CVQCKMPVCYQCLEEGKHSSHSVK [E22S], the protein stability index stood at 3.68.

Turning to CVQCKMPVCYQCLEEGKHSSHYVK [E22Y], the protein stability index worked out at 3.28.

In the case of CVQCKMPVCYQCLEEGKHSSHKVK [E22K], the protein stability index came to 4.31.

CVQCKMPVCYQCLEEGKHSSHHVK [E22H]: the protein stability index amounted to 3.79.

As to CVQCKMPVCYQCLEEGKHSSHVVK [E22V], the protein stability index came out at 4.17.

With CVQCKMPVCYQCLEEGKHSSHWVK [E22W], the protein stability index is 3.11.

In the case of CVQCYMPVCYQCLEEGKHSSHEVK [K5Y], the protein stability index was 2.56.

CVQCEMPVCYQCLEEGKHSSHEVK [K5E]: the protein stability index is 4.22.

In the case of CVQCFMPVCYQCLEEGKHSSHEVK [K5F], the protein stability index stood at 2.52.
